Consider one molecule from patent US20190022244A1 (BIOASIS TECHNOLOGIES, published 2019).

This assay deals with T1, human N-acetylated-alpha-linked acidic dipeptidase-like protein 2 (NAALADL2) (human, UniProt Q58DX5 1-795).
T1 construct: also called human NAALADL2 receptor; NAALADL2 polypeptide
T1 sequence: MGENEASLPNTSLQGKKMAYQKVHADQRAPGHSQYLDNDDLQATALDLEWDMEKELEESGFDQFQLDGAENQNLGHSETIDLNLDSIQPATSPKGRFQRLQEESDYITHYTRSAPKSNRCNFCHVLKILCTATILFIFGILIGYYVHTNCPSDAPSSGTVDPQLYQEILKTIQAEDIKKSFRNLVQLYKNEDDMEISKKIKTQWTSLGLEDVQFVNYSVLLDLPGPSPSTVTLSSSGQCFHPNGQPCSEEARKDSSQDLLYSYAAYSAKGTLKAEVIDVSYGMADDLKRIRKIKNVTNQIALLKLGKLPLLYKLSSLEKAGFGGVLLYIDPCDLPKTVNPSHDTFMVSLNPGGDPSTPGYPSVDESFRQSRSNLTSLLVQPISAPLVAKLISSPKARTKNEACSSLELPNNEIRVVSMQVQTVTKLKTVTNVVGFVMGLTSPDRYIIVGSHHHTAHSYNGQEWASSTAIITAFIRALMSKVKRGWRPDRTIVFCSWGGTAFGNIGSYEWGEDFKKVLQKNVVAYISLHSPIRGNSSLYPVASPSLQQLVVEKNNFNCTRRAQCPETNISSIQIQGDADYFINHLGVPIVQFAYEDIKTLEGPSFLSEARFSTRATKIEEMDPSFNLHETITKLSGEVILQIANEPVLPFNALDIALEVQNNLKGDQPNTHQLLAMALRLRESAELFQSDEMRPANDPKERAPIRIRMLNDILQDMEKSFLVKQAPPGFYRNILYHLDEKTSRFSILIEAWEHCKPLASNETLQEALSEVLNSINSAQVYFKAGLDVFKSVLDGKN
In words: EGS cross-linking on U87 cells, then reciprocal immunoprecipitation (anti-MTf L235 or anti-NAALADL2 N18+L18) and immunoblot with the complementary antibody. The protocol:
Cells were pulsed with 1 μl of 7.1 mg/ml a human melanotransferrin (MTf) peptide ([…]; SEQ ID NO:2) and 4 μl of NTA-Fe, and shaken gently at 4° C. for 20 minutes to allow binding. The supernatant was discarded and the cells were washed 2× with 5 ml of PBS at 4° C. Cross-linker solution (6 ml of 3.7 mM EGS; Thermo Scientific, Cat #87786) was added to each flask, and the cells were shaken gently at 4° C. for 2 hours.
The supernatant was discarded, and 2 ml of RIPA buffer with 1X HALT protease inhibitor cocktail was added to lyse the cells and quench the cross-linker. The cells were shaken vigorously at room temperature for 5 minutes, and a cell scraper was used to lyse and completely detach the cell lysate from the plate.

B1: human melanotransferrin (MTf) peptide (DSSHAFTLDELR; SEQ ID NO:2) (peptide)
peptide: DSSHAFTLDELR
notes: 12-residue fragment of human melanotransferrin (p97); It was pulsed onto U87 cells together with NTA-Fe; also called human MTf peptide; human MTf polypeptide
B1: the binding result is given as “binds”.
